Source: patent US11452709B2, “Compositions and methods for preventing and treating radiation-induced bystander effects caused by radiation or radiotherapy” (The Regents of the University of Colorado, priority 2017, dated 2022)

B1: tCPR-4: recombinant truncated CPR-4 lacking its signal peptide (residues 1-15) (protein, UniProt P43508 81-335, looked up)
Cathepsin B-like cysteine …: IPATFDARTQWPNCMSINNIRDQSDCGSCWAFAAAEAASDRFCIASNGAVNTLLSAEDVLSCCSNCGYGCEGGYPINAWKYLVKSGFCTGGSYEAQFGCKPYSLAPCGETVGNVTWPSCPDDGYDTPACVNKCTNKNYNVAYTADKHFGSTAYAVGKKVSQIQAEIIAHGPVEAAFTVYEDFYQYKTGVYVHTTGQELGGHAIRILGWGTDNGTPYWLVANSWNVNWGENGYFRIIRGTNECGIEHAVVGGVPKV

Legend:
[1] = tested on: Phsp-4::gfp stress-response reporter; test: Phsp-4::gfp stress response assay in unexposed posterior region after localized UV irradiation (LUI); assay type: in vivo, C. elegans; settings: zcls4 L1 larvae treated with 1 mM compound for 48 h (FIG. 17)
CTSB protease = target: T1, CTSB protease (Homo sapiens, UniProt P07858); test: CTSB protease activity inhibition in vitro (z-Arg-Arg-AMC substrate); assay type: biochemical; settings: 1 mM of each compound
T1 construct: purchased Sino Biological Inc. 10483-H08H-10

[2] = tested on: germline mitotic zone nuclei; test: Germ cell proliferation assay (mitotic nuclei); assay type: in vivo, C. elegans; settings: 2.8 μM tCPR-4, 48 hours
Protocol: Growing C. elegans animals in 96-well plates. HB101 bacteria were mixed with 100 μL conditioned medium (0.1 μg/μL) or 100 μL S-Medium containing 2.8 μM of recombinant tCPR-4 proteins (wild-type or mutant) or 0.27 μM recombinant human cathepsin B in a 96-well plate. Approximately 60 L4 larvae were transferred into each well of the plate. After being cultured in liquid media for 48 hours, these animals were scored for the numbers of germ cell corpses and mitotic nuclei. Quantification of mitotic nuclei. L4 animals treated with 2.8 μM of purified tCPR-4 proteins in liquid culture for 48 hours were transferred to NGM plates and allowed to recover for 1 hour at 20° C. They were then dissected to expose their gonads following the protocol described previously. Dissected gonads were fixed and stained with DAPI. The number of germ nuclei and the number of metaphase nuclei in the mitotic zone of each gonad were scored using a Zeiss Nomarski microscope with a DAPI filter.

[3] = tested on: germ cell corpses in ced-1(e1735) animals; test: Germ cell corpse assay with recombinant proteins in liquid culture; assay type: in vivo, C. elegans
Protocol: Growing C. elegans animals in 96-well plates. HB101 bacteria were mixed with 100 μL conditioned medium (0.1 μg/μL) or 100 μL S-Medium containing 2.8 μM of recombinant tCPR-4 proteins (wild-type or mutant) or 0.27 μM recombinant human cathepsin B in a 96-well plate. Approximately 60 L4 larvae were transferred into each well of the plate. After being cultured in liquid media for 48 hours, these animals were scored for the numbers of germ cell corpses and mitotic nuclei. Quantification of germ cell corpses. L4 animals were cultured in liquid media in a 96-well plate as described above. After 48 hours, they were transferred to NGM plates and allowed to recover for 1 hour at 20° C. The animals were then anesthetized by 20 mM NaN3, mounted onto 2% agar pad, and scored under Nomarski optics. For transgenic animals expressing CPR-4 in the pharynx, L4 animals were grown on NGM plates for 24 hours at 20° C. before they were scored for germ cell corpses. Only the posterior arms of intact gonads were scored. Blind tests were carried out in all germ cell corpse quantification experiments.

N2 animals = test: Embryonic lethality assay in liquid media with purified proteins; assay type: in vivo, C. elegans; settings: 2.8 μM tCPR-4 proteins or 0.27 μM rhCTSB, 48 hours
Protocol: Embryonic lethality and larval arrest assays. For embryonic lethality assays caused by direct irradiation, after irradiated with 100 J/m^2 UV or 500 Gy gamma ray, gravid adults were placed on NGM plates to lay eggs for 4 hours at 25° C. and then removed from the plates. For embryonic lethality assays in liquid media, L4 larvae were cultured in conditioned medium or S-Medium containing the purified proteins at 20° C. for 48 hours, transferred to fresh NGM plates from the liquid media, and allowed to lay eggs for 4 hours at 25° C., before the adult animals were removed. For embryonic lethality assays in transgenic animals expressing CPR-4 in the pharynx, transgenic gravid adults at 24 hours post L4 were placed on NGM plates to lay eggs for 4 hours at 25° C. and then removed from the plates.

Molecule | Bystander Phsp-4::gfp response in posterior unexposed regions after LUI at the head [1] | Inhibition rate (%) of the CTSB protease activity (CTSB protease) | inhibition at 1000 µM (CTSB protease; read-out: Inhibition rate (%) of the CTSB protease activity) [%] | Germ cell nuclei and metaphase nuclei in the mitotic zone of N2 animals [2] | Germ cell death in ced-1(e1735); daf2(e1370) mutant ([3]; 2.8 μM tCPR-4, 48 hours) | Germ cell death in ced-1(e1735); pdk-1(sa680) animals ([3]; 2.8 μM tCPR-4, 48 hours) | Germ cell corpses in ced-1(e1735) animals ([3]; 2.8 μM tCPR-4 proteins or 0.27 μM rhCTSB, L4 larvae, 48 hours) | Embryonic lethality of treated N2 animals (N2 animals)
CCCNC(=O)[C@H]1O[C@@H]1C(=O)N[C@H](C(=O)N1CCC[C@H]1C(=O)O)[C@@H](C)CC (relative stereo) [CA074, N-(1-3-trans-propylcarbamoyloxirane-2-carbonyl)-1-isoleucyl-1-proline, reference compound] | abolished the bystander Phsp-4::gfp response | best inhibitory effects | 91.8 |  |  |  |  | 
B1 |  |  |  | more germ cell nuclei and more metaphase nuclei in the mitotic zone | did not further reduce germ cell death | did not reduce germ cell death | reduced germ cell corpses | increased embryonic lethality
